# Reference: paper PMC5520056, “Cryo-EM structures of the ATP-bound Vps4^E233Q hexamer and its complex with Vta1 at near-atomic resolution” (Nature Communications, 2017)
# T1: Vps4 (wild-type, yeast) (Saccharomyces cerevisiae, UniProt P52917 1-437, Cy5 maleimide (labelling efficiency 48%) in the single-molecule assay; unlabelled in the ATPase assay)
# T1 sequence (looked up): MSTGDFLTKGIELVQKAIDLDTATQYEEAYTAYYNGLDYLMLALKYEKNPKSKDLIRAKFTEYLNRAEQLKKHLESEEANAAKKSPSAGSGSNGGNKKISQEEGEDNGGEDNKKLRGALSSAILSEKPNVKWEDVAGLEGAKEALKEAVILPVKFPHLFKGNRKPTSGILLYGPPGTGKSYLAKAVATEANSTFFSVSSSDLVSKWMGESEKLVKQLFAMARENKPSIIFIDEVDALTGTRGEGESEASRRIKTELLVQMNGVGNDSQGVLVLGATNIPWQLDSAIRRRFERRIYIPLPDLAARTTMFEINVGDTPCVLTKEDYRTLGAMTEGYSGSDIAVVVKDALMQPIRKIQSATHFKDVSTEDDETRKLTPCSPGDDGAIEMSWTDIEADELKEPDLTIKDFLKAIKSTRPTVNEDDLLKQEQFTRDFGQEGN
# T2: Vps4^E233QC376S, Cy5-labelled (single-cysteine mutant) (Saccharomyces cerevisiae, UniProt P52917 1-437, E233Q | C376S, Cy5 maleimide on the single cysteine)
# T2 construct: Vps4, Saccharomyces cerevisiae, with E233Q and C376S (only one cysteine left); source: E. coli BL21 (DE3), purified as for other mutant proteins, labelled with Cy5 maleimide
# T2 sequence (looked up): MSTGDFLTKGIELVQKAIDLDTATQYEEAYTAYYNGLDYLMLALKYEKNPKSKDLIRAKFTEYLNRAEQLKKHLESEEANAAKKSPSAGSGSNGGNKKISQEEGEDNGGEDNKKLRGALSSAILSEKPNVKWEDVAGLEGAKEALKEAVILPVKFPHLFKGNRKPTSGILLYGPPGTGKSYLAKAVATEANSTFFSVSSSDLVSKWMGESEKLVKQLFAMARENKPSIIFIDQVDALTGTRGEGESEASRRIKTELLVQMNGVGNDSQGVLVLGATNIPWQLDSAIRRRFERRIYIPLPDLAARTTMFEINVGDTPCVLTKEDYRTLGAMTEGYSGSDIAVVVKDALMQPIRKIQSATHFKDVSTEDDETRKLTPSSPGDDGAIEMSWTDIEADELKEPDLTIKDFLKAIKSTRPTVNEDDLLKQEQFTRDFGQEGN
# B1: Vps4^E233Q (full-length yeast Vps4 containing an E233Q mutation) (enzyme, Saccharomyces cerevisiae, UniProt P52917 1-437, looked up)
# chain: MSTGDFLTKGIELVQKAIDLDTATQYEEAYTAYYNGLDYLMLALKYEKNPKSKDLIRAKFTEYLNRAEQLKKHLESEEANAAKKSPSAGSGSNGGNKKISQEEGEDNGGEDNKKLRGALSSAILSEKPNVKWEDVAGLEGAKEALKEAVILPVKFPHLFKGNRKPTSGILLYGPPGTGKSYLAKAVATEANSTFFSVSSSDLVSKWMGESEKLVKQLFAMARENKPSIIFIDQVDALTGTRGEGESEASRRIKTELLVQMNGVGNDSQGVLVLGATNIPWQLDSAIRRRFERRIYIPLPDLAARTTMFEINVGDTPCVLTKEDYRTLGAMTEGYSGSDIAVVVKDALMQPIRKIQSATHFKDVSTEDDETRKLTPCSPGDDGAIEMSWTDIEADELKEPDLTIKDFLKAIKSTRPTVNEDDLLKQEQFTRDFGQEGN
# notes: Vps4 (vacuolar protein sorting 4), Saccharomyces cerevisiae, full length, with E233Q; Hexamer with ATP, dimer without ATP; written as the protomer because its self-association is what is measured; also called E233Q mutant; Vps4 E233Q mutant; source: E. coli BL21 (DE3), purified (Ni-NTA, apyrase treatment, SEC)
# B2: Vps4 mutant E233QR325A (enzyme, Saccharomyces cerevisiae, UniProt P52917 1-437, looked up)
# chain: MSTGDFLTKGIELVQKAIDLDTATQYEEAYTAYYNGLDYLMLALKYEKNPKSKDLIRAKFTEYLNRAEQLKKHLESEEANAAKKSPSAGSGSNGGNKKISQEEGEDNGGEDNKKLRGALSSAILSEKPNVKWEDVAGLEGAKEALKEAVILPVKFPHLFKGNRKPTSGILLYGPPGTGKSYLAKAVATEANSTFFSVSSSDLVSKWMGESEKLVKQLFAMARENKPSIIFIDQVDALTGTRGEGESEASRRIKTELLVQMNGVGNDSQGVLVLGATNIPWQLDSAIRRRFERRIYIPLPDLAARTTMFEINVGDTPCVLTKEDYATLGAMTEGYSGSDIAVVVKDALMQPIRKIQSATHFKDVSTEDDETRKLTPCSPGDDGAIEMSWTDIEADELKEPDLTIKDFLKAIKSTRPTVNEDDLLKQEQFTRDFGQEGN
# notes: Vps4, Saccharomyces cerevisiae, with E233Q and R325A; also called E233QR325A mutant; source: E. coli BL21 (DE3), purified (Ni-NTA, apyrase treatment, SEC)
# B3: Vta1 (Vps twenty associated 1) (natural protein, Saccharomyces cerevisiae)
# chain: MASNAARVVATAKDFDKVGLGIIGYYLQLYAVELILSEEDRSQEMTALATELLDTIEAFKKEIGGESEAEDSDKSLHVMNTLIHDQEKAKIYMLNFTMSLYNEKLKQLKDGPWDVMLKRSLWCCIDLFSCILHLWKENISETSTNSLQKRIKYCKIYLSKLAKGEIGSSDEKTLDYADFADDSEEIKDEDVDHQTSDLENNNNDKVEGLAPKDQTTSYEPVDEVPEFIDDADSVNEEEQTVDKNEDAITKDEQQVVKKEVDLTRPSAPSEPAAAEHKSYTKDELTKIMDRASKIEQIQKLAKYAISALNYEDLPTAKDELTKALDLLNSI
# notes: Vta1, Saccharomyces cerevisiae, gene amplified from yeast genomic DNA; also called Vta1 dimer; source: E. coli BL21 (DE3), purified (Ni-NTA, apyrase treatment, SEC)
# B4: Vta1^C124S154S, Cy3-labelled (single-cysteine mutant) (natural protein, Saccharomyces cerevisiae)
# chain: MASNAARVVATAKDFDKVGLGIIGYYLQLYAVELILSEEDRSQEMTALATELLDTIEAFKKEIGGESEAEDSDKSLHVMNTLIHDQEKAKIYMLNFTMSLYNEKLKQLKDGPWDVMLKRSLWCSIDLFSCILHLWKENISETSTNSLQKRIKYSKIYLSKLAKGEIGSSDEKTLDYADFADDSEEIKDEDVDHQTSDLENNNNDKVEGLAPKDQTTSYEPVDEVPEFIDDADSVNEEEQTVDKNEDAITKDEQQVVKKEVDLTRPSAPSEPAAAEHKSYTKDELTKIMDRASKIEQIQKLAKYAISALNYEDLPTAKDELTKALDLLNSI
# modifications: Cy3 maleimide on the single cysteine
# notes: Vta1, Saccharomyces cerevisiae, with C124S and C154S (only one cysteine left); source: E. coli BL21 (DE3), purified as for other mutant proteins, labelled with Cy3 maleimide
# Key:
# [1] = target: the molecule itself; test: SEC-MALS; 200 ul of 5 mg/ml (50 uM) Vps4^E233Q preincubated with 1 mM ATP at 4 C for 1 h; Superdex 200 10/300 GL; assembly buffer (20 mM HEPES pH 7.5, 100 mM NaCl, 1 mM DTT, 2 mM MgCl2, 1 mM ATP)
# [2] = target: the molecule itself; test: SEC; oligomeric state without ATP (Supplementary Fig. 9)
# [3] = target: the molecule itself; test: SEC; oligomeric state with ATP: each mutant at 100 uM incubated with 1 mM ATP at 4 C for 1 h; Superdex 200 10/300 GL in assembly buffer
# Vps4 (wild-type, yeast) = target: T1, Vps4 (wild-type, yeast); test: cell-based or functional assay
# [4] = target: B1; test: SEC; Vps4 mutants at 5 uM with Vta1 at molar ratio 1:2, 1 mM ATP, 4 C, 1 h; Superose 6 10/300 GL in assembly buffer; conditions: both partners purified
# [5] = target: the molecule itself; test: cryo-EM structure; ATP-bound Vps4^E233Q-Vta1 complex (1.5- to 2-fold molar excess of Vta1, 1 mM ATP, Superose 6), no glutaraldehyde; no symmetry imposed; 4.2 A
# [6] = target: T2, Vps4^E233QC376S, Cy5-labelled …; test: fluorescence of two dyes in the SEC-separated complex; Cy5-Vps4 and Cy3-Vta1 single-cysteine mutants incubated at molar ratio 1:2 with ATP on ice 1 h, complex separated by SEC in assembly buffer; concentrations from standard curves of fluorescence; conditions: both partners purified
binder,measurement,setting,value
B1,stoichiometry N,[1],6
same,stoichiometry N,[2],2
B2,stoichiometry N,[3],6
same,stoichiometry N,[2],2
B3,ATPase activity (malachite green) of 1 uM wild-type Vps4 in the presence of Vta1,"Vps4 (wild-type, yeast)",2 fold
same,binding result,[4],binds
same,binding result,[5],binds
B4,stoichiometry N,[6],2.06 Vta1/Vps4^E233Q (molar ratio)
